From patent US20230265151A1, “GIP/GLP1 CO-AGONIST COMPOUNDS” (priority 2020, published 2023)

Tests used:
human glucagon receptor [1] = target: human glucagon receptor (human, UniProt P47871 26-477); assay: cell-based or functional assay
human glucagon receptor [2] = target: T1, human glucagon receptor (human, UniProt P47871 26-477); assay: SPA competition vs [125I]-Gcg, hGcgR membranes
T1 construct: whole, on cells; also called hGCGR; hGcgR
Description: The binding buffer contains 25 mM 4-(2-hydroxyethyl)-1-piperazineethanesulfonic acid (HEPES), pH 7.4, 2.5 mM CaCl₂, 1 mM MgCh, 0.1% (w/v) bacitracin (Research Products), 0.003% (w/v) Polyoxyethylenesorbitan monolaurate (TWEEN®-20), and Roche Complete™ Protease Inhibitors without EDTA. […] Plates are sealed and mixed on a plate shaker (setting 6) for 1 minute and read with a PerkinElmer Trilux MicroBeta® scintillation counter after 12 hours of incubation/settling time at room temperature.
(§1) Data are analyzed using four-parameter (curve maximum, curve minimum, IC₅₀, Hill slope) nonlinear regression routines (Genedata Screener, version 12.0.4, Genedata AG, Basal, Switzerland). […] Values for Kᵢ are reported as the geometric mean, with error expressed as the standard error of the mean (SEM) and n is equal to the number of independent replicates (determined in assays performed on different days).
T1 sequence (P47871 26-477): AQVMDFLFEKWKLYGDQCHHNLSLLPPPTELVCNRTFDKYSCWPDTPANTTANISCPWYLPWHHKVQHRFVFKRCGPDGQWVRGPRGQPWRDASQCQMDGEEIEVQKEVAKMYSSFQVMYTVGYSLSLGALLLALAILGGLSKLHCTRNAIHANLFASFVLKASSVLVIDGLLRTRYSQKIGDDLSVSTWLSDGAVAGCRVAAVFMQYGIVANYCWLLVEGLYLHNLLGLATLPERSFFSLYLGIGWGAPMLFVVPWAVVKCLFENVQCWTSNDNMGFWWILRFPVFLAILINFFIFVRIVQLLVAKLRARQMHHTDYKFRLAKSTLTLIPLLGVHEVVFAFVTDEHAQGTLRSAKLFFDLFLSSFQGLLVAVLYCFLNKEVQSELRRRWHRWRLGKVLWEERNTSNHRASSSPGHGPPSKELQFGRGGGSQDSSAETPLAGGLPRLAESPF

human GIP receptor = target: T2, human GIP receptor (human, UniProt P48546 22-466); assay: SPA competition vs [125I]-GIP, hGIPR membranes
T2 construct: whole, on cells; also called hGIPR; human glucose-dependent insulinotropic polypeptide receptor
T2 sequence (looked up): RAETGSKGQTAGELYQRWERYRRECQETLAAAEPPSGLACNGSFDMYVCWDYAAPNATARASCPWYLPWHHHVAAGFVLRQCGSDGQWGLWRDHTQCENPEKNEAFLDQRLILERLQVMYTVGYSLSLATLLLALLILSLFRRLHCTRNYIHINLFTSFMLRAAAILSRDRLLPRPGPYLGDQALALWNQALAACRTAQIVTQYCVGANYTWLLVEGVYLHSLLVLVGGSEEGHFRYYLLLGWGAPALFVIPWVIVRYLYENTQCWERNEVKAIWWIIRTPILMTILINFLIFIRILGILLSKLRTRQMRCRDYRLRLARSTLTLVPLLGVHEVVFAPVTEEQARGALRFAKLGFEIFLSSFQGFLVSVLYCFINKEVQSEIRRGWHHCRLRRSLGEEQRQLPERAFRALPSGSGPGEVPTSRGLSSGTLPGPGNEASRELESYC
Description: The binding buffer contains 25 mM HEPES, pH 7.4, 2.5 mM CaCl₂, 1 mM MgCl₂, 0.1% (w/v) bacitracin, 0.003% (w/v) TWEEN®-20, and Roche Complete™ Protease Inhibitors without EDTA. […] Plates are sealed and mixed on a plate shaker (setting 6) for 1 minute and read with a PerkinElmer Trilux MicroBeta® scintillation counter after 2.5 to 12 hours of incubation/settling time at room temperature.
as §1, with “days). Geometric Means are calculated as follows: […]” for “days).”

human GLP-1 receptor = target: T3, human GLP-1 receptor (human, UniProt P43220 24-463); assay: SPA competition vs [125I]-GLP-1, hGLP-1R membranes
T3 construct: whole, on cells; also called hGLP-1R; human glucagon-like peptide-1 receptor
Description: The binding buffer contains 25 mM HEPES, pH 7.4, 2.5 mM CaCl₂, 1 mM MgCl₂, 0.1% (w/v) bacitracin, 0.003% (w/v) TWEEN®-20, and Roche Complete™ Protease Inhibitors without EDTA.
as §1, with “days). Geometric Means are calculated as follows: […]” for “days).”

B1: Y-Aib-EGT-αMeF(2F)-TSD-4Pal-SI-αMeL-LD-Orn-K((2-[2-(2-Amino-ethoxy)-ethoxy]-acetyl)-(γ-Glu)-(4-(4-tert-butylphenyl)butanoyl))AQ-Aib-EFI-(D-Glu)-αMeY-LIK((2-[2-( … (peptide)
peptide: YXEGTXTSDXSIXLDXKAQXEFIXXLIKGGPSSGAPPPS
modifications: Aib2, αMeF(2F)6, 4Pal10, αMeL13, Orn16, Aib20, D-Glu24, αMeY25; acylated K17, K28 (groups as in name); C-terminal amide
For B1, the “cAMP EC50 (1.0% HSA)” value (human glucagon receptor [1]) was > 9.95 µM.

B2: Y-Aib-EGT-αMeF(2F)-TSD-4Pal-SI-αMeL-LD-Orn-K((2-[2-(2-Amino-ethoxy)-ethoxy]-acetyl)2-(γ-Glu)-(4-(4-tert-butylphenyl)butanoyl))AQ-Aib-EFI-(D-Glu)-αMeY-LIEGGK((2- … (peptide)
peptide: YXEGTXTSDXSIXLDXKAQXEFIXXLIEGGKSSGAPPPS
modifications: Aib2, αMeF(2F)6, 4Pal10, αMeL13, Orn16, K17(Z1), Aib20, D-Glu24, αMeY25, K31(Z1), C-term NH2; Z1=AEEA2-(γ-Glu)-(4-(4-tert-butylphenyl)butanoyl)
B2 gave a Ki (human glucagon receptor [2]) of 637 nM.

B3: Y-Aib-EGT-αMeF(2F)-TSD-4Pal-SI-αMeL-LD-Orn-IAQ-Aib-K((2-[2-(2-Amino-ethoxy)-ethoxy]-acetyl)2-(γ-Glu)-CO-(CH2)12-CO2H)FI-(D-Glu)-αMeY-LIK((2-[2-(2-Amino-ethoxy)- … (peptide)
peptide: YXEGTXTSDXSIXLDXIAQXKFIXXLIKGGPSSGAPPPS
modifications: Aib2, αMeF(2F)6, 4Pal10, αMeL13, Orn16, Aib20, D-Glu24, αMeY25; acylated K21, K28 (groups as in name); C-terminal amide
With B3 the “cAMP EC50 (1.0% HSA)” value (human glucagon receptor [1]) was > 9.95 µM.

B4: Y-Aib-EGT-αMeF(2F)-TSD-4Pal-SI-αMeL-LD-Orn-K((γ-Glu)-(2-[2-(2-Amino-ethoxy)-ethoxy]-acetyl)-CO-(CH2)12-CO2H)AQ-Aib-EFI-(D-Glu)-αMeY-LIEGGK((γ-Glu)-(2-[2-(2-Amin … (peptide)
peptide: YXEGTXTSDXSIXLDXKAQXEFIXXLIEGGKSSGAPPPS
modifications: Aib2, αMeF(2F)6, 4Pal10, αMeL13, Orn16, Aib20, D-Glu24, αMeY25; acylated K17, K31 (groups as in name); C-terminal amide
B4 was tested, and the “cAMP EC50 (1.0% HSA)” value (human glucagon receptor [1]) was > 9.95 µM.

B5: Y-Aib-EGT-αMeF(2F)-TSD-4Pal-SI-αMeL-LD-Orn-K((2-[2-(2-Amino-ethoxy)-ethoxy]-acetyl)3-(γ-Glu)-CO-(CH2)14-CH3)AQ-Aib-EFI-(D-Glu)-αMeY-LIEGGK((2-[2-(2-Amino-ethoxy … (peptide)
peptide: YXEGTXTSDXSIXLDXKAQXEFIXXLIEGGKSSGAPPPS
modifications: Aib2, αMeF(2F)6, 4Pal10, αMeL13, Orn16, K17(Z1), Aib20, D-Glu24, αMeY25, K31(Z1), C-term NH2; Z1=AEEA3-(γ-Glu)-CO-(CH2)14-CH3
Binder B5 has a Ki (human GIP receptor) of 0.0308 nM and a Ki (human glucagon receptor [2]) of 0.62 nM.

B6: Y-Aib-EGT-αMeF(2F)-TSD-4Pal-SI-αMeL-LD-Orn-K((εK)-(γ-Glu)-(γ-Glu)-CO-(CH2)12-CO2H)AQ-Aib-EFI-(D-Glu)-αMeY-LIEGGK((εK)-(γ-Glu)-(γ-Glu)-CO-(CH2)12-CO2H)SSGAPPPS-N … (peptide)
peptide: YXEGTXTSDXSIXLDXKAQXEFIXXLIEGGKSSGAPPPS
modifications: Aib2, αMeF(2F)6, 4Pal10, αMeL13, Orn16, K17(Z1), Aib20, D-Glu24, αMeY25, K31(Z1), C-term NH2; Z1=(εK)-(γ-Glu)-(γ-Glu)-CO-(CH2)12-CO2H
B6 showed a Ki (human GIP receptor) of 0.234 nM, a Ki (human GLP-1 receptor) of 1.69 nM and a Ki (human glucagon receptor [2]) of 412 nM.

B7: Y-Aib-EGT-αMeF-TSD-4Pal-SI-αMeL-LD-Orn-K((2-[2-(2-Amino-ethoxy)-ethoxy]-acetyl)2-(γ-Glu)-CO-(CH2)12-CO2H)AQ-Aib-EFI-(D-Glu)-αMeY-LIEGGK((2-[2-(2-Amino-ethoxy)-e … (peptide)
peptide: YXEGTXTSDXSIXLDXKAQXEFIXXLIEGGKSSGAPPPS
modifications: Aib2, αMeF6, 4Pal10, αMeL13, Orn16, Aib20, D-Glu24, αMeY25; acylated K17, K31 (groups as in name); C-terminal amide
In the case of B7, the “cAMP EC50 (1.0% HSA)” value (human glucagon receptor [1]) is reported as > 9.95 µM.

B8: Y-Aib-EGT-αMeF(2F)-TSD-4Pal-SI-αMeL-LD-Orn-K((2-[2-(2-Amino-ethoxy)-ethoxy]-acetyl)2-(γ-Glu)-CO-(CH2)14-CH3)AQ-Aib-K((2-[2-(2-Amino-ethoxy)-ethoxy]-acetyl)2-(γ- … (peptide)
peptide: YXEGTXTSDXSIXLDXKAQXKFIXXLIEGGPSSGAPPPS
modifications: Aib2, αMeF(2F)6, 4Pal10, αMeL13, Orn16, K17(Z1), Aib20, K21(Z1), D-Glu24, αMeY25, C-term NH2; Z1=AEEA2-(γ-Glu)-CO-(CH2)14-CH3
B8 was tested, and the Ki (human GIP receptor) was 0.0231 nM, the Ki (human GLP-1 receptor) was 0.246 nM and the Ki (human glucagon receptor [2]) was 0.293 nM.

B9: Y-Aib-EGT-αMeF(2F)-TSD-4Pal-SI-αMeL-LD-Orn-IAQ-Aib-EFI-(D-Glu)-αMeY-LIK((2-[2-(2-Amino-ethoxy)-ethoxy]-acetyl)2-(γ-Glu)-CO-(CH2)12-CO2H)GGK((2-[2-(2-Amino-ethox … (peptide)
peptide: YXEGTXTSDXSIXLDXIAQXEFIXXLIKGGKSSGAPPPS
modifications: Aib2, αMeF(2F)6, 4Pal10, αMeL13, Orn16, Aib20, D-Glu24, αMeY25, K28(Z1), K31(Z1), C-term NH2; Z1=AEEA2-(γ-Glu)-CO-(CH2)12-CO2H
Work on B9 yielded a Ki (human GIP receptor) of 0.0722 nM, a Ki (human GLP-1 receptor) of 1.96 nM and a Ki (human glucagon receptor [2]) of 139 nM.

B10: Y-Aib-EGT-αMeF(2F)-TSD-4Pal-SI-αMeL-LD-Orn-IAQ-Aib-EFI-(D-Glu)-αMeY-LIK((2-[2-(2-Amino-ethoxy)-ethoxy]-acetyl)2-(γ-Glu)-CO-(CH2)14-CH3)GGK((2-[2-(2-Amino-ethoxy … (peptide)
peptide: YXEGTXTSDXSIXLDXIAQXEFIXXLIKGGKSSGAPPPS
modifications: Aib2, αMeF(2F)6, 4Pal10, αMeL13, Orn16, Aib20, D-Glu24, αMeY25, K28(Z1), K31(Z1), C-term NH2; Z1=AEEA2-(γ-Glu)-CO-(CH2)14-CH3
Work on B10 yielded a Ki (human GIP receptor) of 0.0863 nM, a Ki (human GLP-1 receptor) of 0.867 nM and a Ki (human glucagon receptor [2]) of 3.82 nM.
